From patent US20140294861A1 (University of Pennsylvania, published 2014)

What was measured:
[1] = biological target: T1, human B7-H4 expressed at the cell surface (human, UniProt Q7Z7D3 25-282); test: cell-based or functional assay
T1 sequence (looked up): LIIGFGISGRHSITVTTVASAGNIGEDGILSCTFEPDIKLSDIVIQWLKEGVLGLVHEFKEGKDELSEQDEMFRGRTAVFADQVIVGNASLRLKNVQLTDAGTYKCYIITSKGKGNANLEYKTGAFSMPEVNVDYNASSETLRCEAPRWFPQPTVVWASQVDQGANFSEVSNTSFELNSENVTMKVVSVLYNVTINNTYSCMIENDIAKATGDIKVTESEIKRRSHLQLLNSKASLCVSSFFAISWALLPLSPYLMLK

[2] = biological target: T1, human B7-H4 expressed at the cell …; test: flow cytometry on macrophages
[3] = biological target: T2, recombinant B7-H4 protein (extracellular domain, IgC+IgV, fused to 6xHIS Tag) (human, UniProt Q7Z7D3 29-259, biotinylated in the capture ELISA (site not stated)); test: capture ELISA, immobilized scFv, biotinylated rB7-H4, SA-HRP
T2 construct: also called rB7-H4; rhB7-H4
T2 sequence: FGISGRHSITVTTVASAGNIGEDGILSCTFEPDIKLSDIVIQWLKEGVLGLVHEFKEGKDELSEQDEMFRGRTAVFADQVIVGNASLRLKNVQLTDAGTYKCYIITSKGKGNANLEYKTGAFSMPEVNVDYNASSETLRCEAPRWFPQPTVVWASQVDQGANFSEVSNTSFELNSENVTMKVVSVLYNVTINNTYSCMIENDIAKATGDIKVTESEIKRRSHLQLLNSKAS
Protocol: FIG. 6A is a schematic representation of protein-based (FIG. 6B) and cell-based isolation (FIG. 6C) strategies. Protein-based and cell-based isolated anti-B7-H4 scFvs were plastic-immobilized and incubated with serial dilutions of biotinylated recombinant B7-H4 (black diamonds) or irrelevant control antigen (BSA, grey triangles). Protein binding to scFv was detected with SA-HRP. Colorimetric signal was developed with TMB substrate solution, quenched with sulfuric acid and read at 450 nm on a Biotek ELISA reader.
The yeast-display scFv library derived from ovarian cancer patients was first screened by magnetic and flow sorting for anti-B7-H4 scFv using progressively decreasing concentrations of human biotinylated B7-H4 recombinant protein (rhB7-H4). Briefly, the library was enriched magnetically 3 times for scFv that bound to 1 ug/ml biotinylated rhB7-H4, and two times flow sorted with 1 ug/ml and 0.5 ug/ml biotinylated rhB7-H4. Selected yeast-display scFv were flow sorted for c-myc/B7-H4 double positive clones. […] Binding to serial dilutions of biotinylated rB7-H4 or control protein was detected using streptavidin-HRP. Colorimetric signals were developed with TMB substrate solution quenched with sulfuric acid and read at 450 nm on a […] Sequencing of scFv clones 26 and 56 was identified 2 unique clones that were then produced and Ni purified.

B1: anti-B7H4 scFv clone 3#68 (scFv)
scFv: QPGLTQPPSASGTPGQRVTISCSGSSSNIGSNYVYWYQQFPGTAPKLLIYRNNQRPSGVPDRFSGSKSGTSASLAISGLRSEDEADYYCAAWDDSLSVWVFGGGTKVTVLGGSSRSSSSGGSGSGGGGQVTLKESGAEVKNPGSSVKVSCKASGGTFSSYAISWLRQAPGQGLEWMGWINPNSGGSDYAQRFQGRVTMTRDTSINTVYMELSRLRSDDTAVYYCARVEKRGYYYGMDVWGQGTMVTVSSFEGSEQ
Question: For B1, which “IFN-γ production of MART-1 TCR T cells in the presence of B7-H4+ TAMs” value [1] is on record?
Answer: > 2 fold

B2: anti-B7H4 scFv clone 3#54 (scFv)
scFv: RPVLTQPPSAAGTPGQRVTISCSGSSSNIGSNYVYWYQQLPGMAPKLLIYTNNQRPSGVPGRFSGSKSGTSASLAISGLRSEDEADYYCAAWDDSLNGWVFGGGTELTVLGGSSRSSSSGGGGSGGGGQVQLQESGPGLVKPSETLSLTCNVSGRSVSSGFYWSWIRQRPGKGLEWVGSIYRSGLTYYNPSLKSRVTISVDTSKNQFSLKLSSVTAADTAVYYCARATPWYYYGMDVWGQGTTVTVSSFEGSEQ
Question: How did the “IFN-γ production of MART-1 TCR T cells in the presence of B7-H4+ TAMs” value [1] turn out when B2 was run?
Answer: > 2 fold

B3: anti-B7H4 scFv clone 26 (scFv)
scFv: DIVMTQTPATLSVSPGKRATLSCRASQSVSSNYLAWYQQKPGQAPRLLIYGASRRATGIPDRFSGSGSGTDFTLTISSLQAEDVAVYYCQQYGSSPRTFGQGTKLEIKGGSSRSSSSGGGGSGGGGQVTLKESGAEVKNPGSSVKVSCKASGGTFSSYAISWLRQAPGQGLEWMGWINPNSGGSDYAQRFQGRVTMTRDTSINTVYMELSRLRSDDTAVYYCARVEKRGYYYGMDVWGQGTMVTVSSFEGSEQ
Question: How did the “IFN-γ secretion of MART-1 TCR T cells in the presence of B7-H4+ TAMs” value [1] turn out when B3 was run?
Answer: 1.5 fold

B4: anti-B7H4 scFv clone 56 (scFv)
scFv: QPVLTQSHSVSESPGKTVTITCTGSGGNIATQYVQWYQQRPGSGPTTVIYDDDQRPSGVPDRFTGSIDSSSNSASLTISGLKTEDEADYYCQSYDSTNHGVFGGGAKVTVLGGSSRSSSSGGGGSGGGGQVQLQQWGPGLVKPSETLSLTCTVSGGSISSSSYYWGWIRQPPGKGLEWIGSIYYSGSTYYNPSLKSRVTISVDTSKNQFSLKLSSVTAADTAVYYCARLSKGYSSSWAYSYYGPDAWGQGTMVTVSSFEGSEQ
notes: Human scFv from a yeast-display library, made soluble from the yeast secretion vector p416-BCCP; Soluble scFv was detected through V5 and purified on Ni; also called scFv #56; 56 scFv
Question: Does B4 bind [2]?
Answer: binds

Question: Does B4 bind [3]?
Answer: binds
